Our source for the OD450 nm and MFI values is patent US20220073608A1.

Assay [1] concerns the target hSEMA4D ECD-His (His-tagged human SEMA4D protein extracellular domain, Met22-Arg734) (human) (UniProt Q92854). The experiment in a line: ELISA, coated hSEMA4D ECD-His; Ab 0.0213 nM. Background: In an ELISA, binding on a coated surface is turned into a signal by an enzyme label.
For assay [2] the target is unchanged. In words: ELISA, coated hSEMA4D ECD-His; Ab 0.0427 nM.
Assay [3] has the same target. In words: ELISA, coated hSEMA4D ECD-His; Ab 13.3 nM.
Assay [4] shares this target. In words: ELISA, coated hSEMA4D ECD-His; Ab 2.67 nM.
The target is the same in assay [5]. The experiment in a line: ELISA, coated hSEMA4D ECD-His; Ab 0.00085 nM.
Assay [6] has the same target. In words: ELISA, coated hSEMA4D ECD-His; Ab 0.107 nM.
For assay [7] the target is unchanged. The experiment in a line: ELISA, coated hSEMA4D ECD-His; Ab 0.533 nM.
The target of assay [8] is T1, human SEMA4D, full length, on CHO-K1 cells (CHO-K1 hSEMA4D) (human) (UniProt Q92854).
T1 sequence (looked up): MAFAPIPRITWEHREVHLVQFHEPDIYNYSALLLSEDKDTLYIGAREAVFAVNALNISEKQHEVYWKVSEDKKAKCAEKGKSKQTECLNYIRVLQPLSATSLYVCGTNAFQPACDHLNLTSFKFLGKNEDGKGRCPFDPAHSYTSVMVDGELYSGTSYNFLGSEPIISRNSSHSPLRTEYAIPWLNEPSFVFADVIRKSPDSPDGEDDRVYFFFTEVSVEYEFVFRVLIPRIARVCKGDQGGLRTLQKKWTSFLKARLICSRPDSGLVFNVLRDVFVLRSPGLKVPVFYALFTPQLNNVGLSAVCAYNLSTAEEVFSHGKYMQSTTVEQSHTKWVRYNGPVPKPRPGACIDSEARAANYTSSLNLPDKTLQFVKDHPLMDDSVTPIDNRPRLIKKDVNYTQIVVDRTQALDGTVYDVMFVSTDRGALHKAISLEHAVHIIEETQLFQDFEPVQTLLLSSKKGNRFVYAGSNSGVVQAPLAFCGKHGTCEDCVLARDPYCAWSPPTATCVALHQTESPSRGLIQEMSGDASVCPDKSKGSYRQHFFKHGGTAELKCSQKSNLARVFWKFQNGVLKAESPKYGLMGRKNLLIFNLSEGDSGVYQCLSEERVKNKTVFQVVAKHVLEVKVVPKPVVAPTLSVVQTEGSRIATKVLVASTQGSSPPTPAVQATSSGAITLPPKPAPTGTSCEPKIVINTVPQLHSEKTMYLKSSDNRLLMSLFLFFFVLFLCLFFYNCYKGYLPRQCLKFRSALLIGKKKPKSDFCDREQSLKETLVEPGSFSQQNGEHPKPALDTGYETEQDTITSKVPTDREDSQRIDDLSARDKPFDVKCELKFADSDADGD
In words: FACS, CHO-K1 hSEMA4D cells; Ab 66.7 nM. For orientation: Flow cytometry measures light scatter and fluorescence of single cells or particles in a stream.

Assay [9] has as its target monkey SEMA4D, full length, on CHO-K1 cells (CHO-K1 cSEMA4D) (monkey). The experiment in a line: FACS, CHO-K1 cSEMA4D cells; Ab 66.7 nM.
Assay [10] has as its target hSEMA4D ECD-His (His-tagged human SEMA4D protein extracellular domain, Met22-Arg734) (human) (UniProt Q92854). The experiment in a line: ELISA, coated hSEMA4D ECD-His; Ab 0.0107 nM.
The target is the same in assay [11]. In words: ELISA, coated hSEMA4D ECD-His; Ab 6.67 nM.
For assay [12] the target is unchanged. The experiment in a line: ELISA, coated hSEMA4D ECD-His; Ab 0.267 nM.
The target is the same in assay [13]. In words: ELISA, coated hSEMA4D ECD-His; Ab 0.0533 nM.
Assay [14] shares this target. The experiment in a line: ELISA, coated hSEMA4D ECD-His; Ab 0.00427 nM.
Assay [15] shares this target. In words: ELISA, coated hSEMA4D ECD-His; Ab 0.000085 nM.
The target is the same in assay [16]. The experiment in a line: ELISA, coated hSEMA4D ECD-His; Ab 1.33 nM.

For the substance Human IgG control (antibody), the OD450 nm in assay [1] was found to be 0.0714; in assay [2] it was 0.0754; in assay [3] it was 0.0766; in [4], 0.074; in [5] it was 0.0781; in assay [6], 0.0717. Further, in assay [7], the OD450 nm is 0.0748.
Mouse IgG control (antibody): the MFI in assay [8] is 214; in [9], 339. For the same substance, the OD450 nm is 0.0814 in assay [10]; 0.533 in [11]; 0.0791 in assay [12]; 0.0805 in [13]; 0.0789 in assay [14]; 0.0686 in assay [15]. Besides, the OD450 nm in [16] stood at 0.264.
